Test results taken from publication PMC9544338.

What was measured:
Test in all cases: co-IP; N2a cells cotransfected with His6-RGS19 and Gαo-GFP (C-terminally tagged) variants, treated with 1 μM ZPT for 3 hours before IP of Gαo with a nanobody against GFP; Western blot; fold against DMSO-treated cells
[1] = molecular target: Gαo[E246K]-GFP (C-terminally tagged) (human), P09471; details: remark: other sources report otherwise
[2] = molecular target: Gαo[G203R]-GFP (C-terminally tagged) (human), P09471
[3] = molecular target: Gαo[R209C]-GFP (C-terminally tagged) (human), P09471; details: remark: other sources report otherwise

- fold increase of the interaction by ZPT over DMSO [1]: 12 fold
- fold increase of the interaction by ZPT over DMSO [2]: 20 fold
- fold increase of the interaction by ZPT over DMSO [3]: 6 fold
B1: His6-RGS19, P49795 1-217 (other documents disagree on this pair)
chain: MPTPHEAEKQITGPEEADRPPSMSSHDTASPAAPSRNPCCLCWCCCCSCSWNQERRRAWQASRESKLQPLPSCEVCATPSPEEVQSWAQSFDKLMHSPAGRSVFRAFLRTEYSEENMLFWLACEELKAEANQHVVDEKARLIYEDYVSILSPKEVSLDSRVREGINKKMQEPSAHTFDDAQLQIYTLMHRDSYPRFLSSPTYRALLLQGPSQSSSEA
